{"source": "paper PMC10823258", "about": "(Proceedings of the National Academy of Sciences of the …, 2024)", "molecules": {"B1": {"name": "SCV PTE G18C (structured_RNA)", "RNA": "GGUUGCUCGACUGUGAGCGGACCUACCCACUGUGGAAACACCACAGGAACUUCCAACCUUCGGGUGGCGAGGUAGGGCAGAAGAGUGACC"}, "B2": {"name": "SCV PTE G18U (structured_RNA)", "RNA": "B1 RNA with C18U"}, "B3": {"name": "SCV PTE G18A (structured_RNA)", "RNA": "B1 RNA with C18A"}, "B4": {"name": "SCV PTE WT (structured_RNA)", "RNA": "GGUUGCUCGACUGUGAGGGGACCUACCCACUGUGCUGCCACACAGGAACUUCCAACCUUCGGGUGGCGAGGUAGGGCAGAAGAGUGACC"}}, "key": {"wheat eIF4E": {"target": "T1, wheat eIF4E (Triticum aestivum, UniProt P29557)", "T1 sequence (P29557 39-215)": "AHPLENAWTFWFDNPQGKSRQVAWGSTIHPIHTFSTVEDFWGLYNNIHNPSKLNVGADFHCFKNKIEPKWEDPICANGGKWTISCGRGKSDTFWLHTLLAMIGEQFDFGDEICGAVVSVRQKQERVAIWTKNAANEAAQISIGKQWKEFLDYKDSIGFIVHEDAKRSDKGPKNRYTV", "assay": "isothermal titration calorimetry", "format": "binding"}, "human eIF4E [1]": {"target": "T2, human eIF4E (human, UniProt P06730)", "assay": "ITC"}, "human eIF4E [2]": {"target": "T2, human eIF4E", "assay": "ITC", "remark": "listed apart in the source"}, "human eIF4E [3]": {"target": "T2, human eIF4E", "assay": "ITC", "remark": "listed apart in the source"}, "GB1-human eIF4E": {"target": "GB1-human eIF4E (human, UniProt P06730)", "assay": "ITC"}, "human eIF4E [4]": {"target": "T2, human eIF4E", "assay": "ITC", "remark": "listed apart in the source"}}, "note": "Positions count from the first letter of the chain named. Names may count otherwise. Like-named read-outs stand apart in the source and are kept apart here."}
{"molecule": "C[n+]1cn([C@@H]2O[C@H](COP(=O)(O)OP(=O)(O)OP(=O)(O)O)[C@@H](O)[C@H]2O)c2nc(N)[nH]c(=O)c21", "note": "[m7GTP]", "values": [{"measurement": "Kd", "setting": "wheat eIF4E", "value": "1800 ± 800", "unit": "nM"}]}
{"molecule": "B1", "values": [{"measurement": "binding result", "setting": "human eIF4E [1]", "value": "no binding"}]}
{"molecule": "B2", "values": [{"measurement": "binding result", "setting": "human eIF4E [1]", "value": "no binding"}]}
{"molecule": "B3", "values": [{"measurement": "Kd", "setting": "human eIF4E [2]", "value": "6200 ± 900", "unit": "nM"}]}
{"molecule": "GGGGUCUCUCUUGUCGAGAGGCAAGGAACCC (ssRNA, 5' cap (m7G))", "note": "[5' capped RNA]", "values": [{"measurement": "Kd", "setting": "human eIF4E [3]", "value": "76 ± 3", "unit": "nM"}]}
{"molecule": "B4", "values": [{"measurement": "Kd", "setting": "GB1-human eIF4E", "value": "900 ± 236", "unit": "nM"}, {"measurement": "Kd", "setting": "human eIF4E [4]", "value": "576 ± 56", "unit": "nM"}]}
